Experimental data: patent publication US20250313602A1
Values joined by “and” are separate entries in the source; they are usually repeats but may differ in a detail not shown here. Equal values may be shown once.

Biological target: FcRn
Assay: BLI

Kd: 2.83 nM and 1.27 nM
Substance: Herceptin
